What follows are binders tested against MUC1-5TR (unglycosylated, five MUC1 tandem repeats) (UniProt P15941 126-225) (assay: SPR).
Sequence of MUC1-5TR (unglycosylated, five MUC1 tandem repeats) (P15941 126-225): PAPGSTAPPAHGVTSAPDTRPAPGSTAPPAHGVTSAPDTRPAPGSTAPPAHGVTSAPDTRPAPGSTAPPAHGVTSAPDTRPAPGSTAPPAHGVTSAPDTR
In the case of TACTGCATGCACACCACTTCAACTA (ssDNA) [5TR4], the Kd is reported as 69 nM. Work on CAAACAATCAAACAGCAGTGGGGTG (ssDNA) [5TR3] yielded a Kd of 83 nM. Work on GAAGTGAAAATGACAGAACACAACA (ssDNA) [5TR1] yielded a Kd of 21 nM. Binder GGCTATAGCACATGGGTAAAACGAC (ssDNA) [5TR2] has a Kd of 85.2 nM.

Source: PMC2647295
